Results on 23 variants are retold here after IntAct's records for PubMed 35512704.

Sequences and labels used below:
B1: Speckle-type POZ protein (Homo sapiens), O43791 (parent)
chain: MSRVPSPPPPAEMSSGPVAESWCYTQIKVVKFSYMWTINNFSFCREEMGEVIKSSTFSSGANDKLKWCLRVNPKGLDEESKDYLSLYLLLVSCPKSEVRAKFKFSILNAKGEETKAMESQRAYRFVQGKDWGFKKFIRRDFLLDEANGLLPDDKLTLFCEVSVVQDSVNISGQNTMNMVKVPECRLADELGGLWENSRFTDCCLCVAGQEFQAHKAILAARSPVFSAMFEHEMEESKKNRVEINDVEPEVFKEMMCFIYTGKAPNLDKMADDLLAAADKYALERLKVMCEDALCSNLSVENAAEILILADLHSADQLKTQAVDFINYHASDVLETSGWKSMVVSHPHLVAEAYRSLASAQCPFLGPPRKRLKQS
partner: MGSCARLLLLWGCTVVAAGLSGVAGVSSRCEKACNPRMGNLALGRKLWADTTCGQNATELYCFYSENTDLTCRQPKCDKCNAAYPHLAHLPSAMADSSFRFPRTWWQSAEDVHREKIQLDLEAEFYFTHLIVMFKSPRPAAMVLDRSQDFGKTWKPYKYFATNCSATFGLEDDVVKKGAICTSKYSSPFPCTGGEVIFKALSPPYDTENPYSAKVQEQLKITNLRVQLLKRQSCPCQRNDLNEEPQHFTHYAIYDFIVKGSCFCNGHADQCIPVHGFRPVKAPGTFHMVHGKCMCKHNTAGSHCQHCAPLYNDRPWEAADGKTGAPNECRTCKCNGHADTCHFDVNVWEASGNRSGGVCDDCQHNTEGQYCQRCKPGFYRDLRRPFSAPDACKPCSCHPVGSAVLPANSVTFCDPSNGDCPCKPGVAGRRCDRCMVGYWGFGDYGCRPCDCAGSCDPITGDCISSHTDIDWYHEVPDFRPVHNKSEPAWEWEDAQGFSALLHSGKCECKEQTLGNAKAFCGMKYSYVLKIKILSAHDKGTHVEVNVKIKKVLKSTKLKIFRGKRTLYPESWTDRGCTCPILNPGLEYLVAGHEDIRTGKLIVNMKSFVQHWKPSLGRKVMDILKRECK
B2: Speckle-type POZ protein (Homo sapiens), O43791 (parent)
chain: B1 chain
partner: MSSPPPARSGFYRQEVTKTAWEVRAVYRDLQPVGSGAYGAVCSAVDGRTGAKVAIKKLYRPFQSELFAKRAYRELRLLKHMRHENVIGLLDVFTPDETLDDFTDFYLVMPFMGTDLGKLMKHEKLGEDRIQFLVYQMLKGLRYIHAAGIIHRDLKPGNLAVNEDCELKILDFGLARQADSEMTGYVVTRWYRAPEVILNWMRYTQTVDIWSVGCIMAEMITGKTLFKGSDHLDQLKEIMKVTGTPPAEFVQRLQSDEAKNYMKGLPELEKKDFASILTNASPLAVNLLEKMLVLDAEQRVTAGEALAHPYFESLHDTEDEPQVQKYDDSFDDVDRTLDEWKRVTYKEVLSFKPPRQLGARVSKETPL
B3: Speckle-type POZ protein (Homo sapiens), O43791 (parent)
chain: B1 chain
partner: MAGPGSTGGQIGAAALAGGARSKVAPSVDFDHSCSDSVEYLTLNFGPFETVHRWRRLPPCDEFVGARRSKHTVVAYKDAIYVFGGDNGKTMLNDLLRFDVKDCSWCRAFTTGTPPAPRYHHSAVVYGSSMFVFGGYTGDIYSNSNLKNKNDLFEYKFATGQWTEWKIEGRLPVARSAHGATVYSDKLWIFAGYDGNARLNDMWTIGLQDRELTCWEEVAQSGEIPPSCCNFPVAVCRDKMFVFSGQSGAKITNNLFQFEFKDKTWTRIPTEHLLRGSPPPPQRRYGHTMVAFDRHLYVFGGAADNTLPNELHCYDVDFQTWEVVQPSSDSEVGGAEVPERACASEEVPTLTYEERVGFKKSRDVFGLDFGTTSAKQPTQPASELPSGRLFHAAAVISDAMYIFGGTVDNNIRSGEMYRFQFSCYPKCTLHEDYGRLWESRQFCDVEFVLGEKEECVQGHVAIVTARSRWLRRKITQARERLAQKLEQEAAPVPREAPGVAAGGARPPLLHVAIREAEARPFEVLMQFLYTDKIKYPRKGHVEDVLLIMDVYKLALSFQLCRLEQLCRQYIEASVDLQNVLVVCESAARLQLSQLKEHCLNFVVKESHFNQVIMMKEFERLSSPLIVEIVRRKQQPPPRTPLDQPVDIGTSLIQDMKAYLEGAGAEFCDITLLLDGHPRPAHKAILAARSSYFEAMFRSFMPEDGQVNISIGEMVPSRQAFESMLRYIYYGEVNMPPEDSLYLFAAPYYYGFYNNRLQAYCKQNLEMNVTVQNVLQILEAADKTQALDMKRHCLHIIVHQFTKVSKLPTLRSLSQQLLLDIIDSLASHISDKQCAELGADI
B4: Speckle-type POZ protein (Homo sapiens), O43791 (parent)
chain: B1 chain
partner: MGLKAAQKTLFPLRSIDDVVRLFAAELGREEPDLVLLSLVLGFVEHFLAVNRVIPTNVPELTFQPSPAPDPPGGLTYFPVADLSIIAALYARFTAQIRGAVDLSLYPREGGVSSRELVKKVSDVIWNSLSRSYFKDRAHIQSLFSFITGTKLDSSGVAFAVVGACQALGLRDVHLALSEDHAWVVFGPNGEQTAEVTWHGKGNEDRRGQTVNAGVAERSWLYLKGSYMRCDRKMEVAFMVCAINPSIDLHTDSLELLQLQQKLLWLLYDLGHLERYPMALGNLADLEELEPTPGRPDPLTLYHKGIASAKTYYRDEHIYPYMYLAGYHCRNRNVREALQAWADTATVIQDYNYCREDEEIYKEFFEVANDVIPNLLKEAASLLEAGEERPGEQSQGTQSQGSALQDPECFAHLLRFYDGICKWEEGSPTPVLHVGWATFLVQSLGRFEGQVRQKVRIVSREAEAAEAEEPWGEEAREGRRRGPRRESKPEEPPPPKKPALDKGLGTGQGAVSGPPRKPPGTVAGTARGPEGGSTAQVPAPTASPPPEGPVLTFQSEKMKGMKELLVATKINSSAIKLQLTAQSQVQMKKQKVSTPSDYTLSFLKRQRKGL
B5: Speckle-type POZ protein (Homo sapiens), O43791 (parent)
chain: B1 chain
partner: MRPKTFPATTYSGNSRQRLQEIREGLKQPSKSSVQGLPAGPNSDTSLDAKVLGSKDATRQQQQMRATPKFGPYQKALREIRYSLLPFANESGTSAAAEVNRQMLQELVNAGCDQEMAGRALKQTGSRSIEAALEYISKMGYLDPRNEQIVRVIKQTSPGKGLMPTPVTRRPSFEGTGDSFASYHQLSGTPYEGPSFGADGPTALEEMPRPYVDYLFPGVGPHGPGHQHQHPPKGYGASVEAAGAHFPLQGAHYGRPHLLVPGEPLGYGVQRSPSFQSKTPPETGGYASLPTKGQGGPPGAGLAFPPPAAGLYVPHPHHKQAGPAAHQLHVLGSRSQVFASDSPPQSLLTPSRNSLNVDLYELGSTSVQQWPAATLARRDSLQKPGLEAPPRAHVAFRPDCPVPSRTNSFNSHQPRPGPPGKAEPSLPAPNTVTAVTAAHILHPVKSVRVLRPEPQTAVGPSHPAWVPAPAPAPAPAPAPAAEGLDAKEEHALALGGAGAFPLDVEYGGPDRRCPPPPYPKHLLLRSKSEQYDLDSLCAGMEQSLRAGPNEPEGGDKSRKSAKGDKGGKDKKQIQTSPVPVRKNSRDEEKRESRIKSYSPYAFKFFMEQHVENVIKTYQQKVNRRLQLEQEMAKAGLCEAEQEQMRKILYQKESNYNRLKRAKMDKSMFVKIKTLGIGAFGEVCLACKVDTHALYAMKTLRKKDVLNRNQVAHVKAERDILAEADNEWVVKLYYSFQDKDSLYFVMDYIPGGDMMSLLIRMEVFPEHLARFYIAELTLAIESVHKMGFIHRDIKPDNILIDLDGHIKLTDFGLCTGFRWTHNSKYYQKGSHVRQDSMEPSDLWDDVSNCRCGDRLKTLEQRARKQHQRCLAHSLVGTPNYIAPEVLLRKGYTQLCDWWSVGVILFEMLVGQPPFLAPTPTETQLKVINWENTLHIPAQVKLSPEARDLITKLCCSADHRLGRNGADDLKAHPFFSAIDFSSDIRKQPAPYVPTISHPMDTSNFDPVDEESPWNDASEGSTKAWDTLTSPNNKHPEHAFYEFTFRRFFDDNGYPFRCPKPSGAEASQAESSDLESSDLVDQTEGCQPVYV
B6: Speckle-type POZ protein (Homo sapiens), O43791 (parent)
chain: B1 chain
partner: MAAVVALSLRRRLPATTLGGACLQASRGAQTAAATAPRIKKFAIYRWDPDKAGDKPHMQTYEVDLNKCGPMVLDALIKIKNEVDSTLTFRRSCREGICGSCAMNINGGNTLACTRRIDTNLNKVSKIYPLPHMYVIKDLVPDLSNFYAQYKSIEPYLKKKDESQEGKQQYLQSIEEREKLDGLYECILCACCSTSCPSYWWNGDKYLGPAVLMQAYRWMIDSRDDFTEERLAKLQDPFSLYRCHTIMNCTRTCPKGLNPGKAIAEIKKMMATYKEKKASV

The variants in the first assay derive from B1. Conditions: with net4_human NTN4, Q9HB63.
For the variant F133L, the “effect of a mutation on the interaction” value is reported as “with no effect”.

The variants in a further assay derive from B1. The following applies: with net4_human NTN4, Q9HB63. The source holds these as a separate data set.
Regarding F133V, the “effect of a mutation on the interaction” value is “with no effect”.

The variants in another assay derive from B1. Conditions: with net4_human NTN4, Q9HB63. This is another data set of the same source.
Turning to F102C, the “effect of a mutation on the interaction” value is “with no effect”.

In another assay the parent is B2. The following applies: with mk12_human MAPK12, P53778.
For Y87C, the “effect of a mutation on the interaction” value is reported as “with no effect”.

Variants of B2 are the subject of the next assay. The following applies: with mk12_human MAPK12, P53778. The source holds these as a separate data set.
Take F133V: the “effect of a mutation on the interaction” value is on record as “with no effect”.

The variants in a further assay derive from B2. Conditions: with mk12_human MAPK12, P53778. The source holds these as a separate data set.
With F133L, the “effect of a mutation on the interaction” value is listed as “with no effect”.

The variants in a further assay derive from B2. Conditions: with mk12_human MAPK12, P53778. The source holds these as a separate data set.
F102C: the “effect of a mutation on the interaction” value was “with no effect”.

In the next assay the parent is B3. The following applies: with lztr1_human LZTR1, Q8N653.
With Y87C, the “effect of a mutation on the interaction” value is reported as “with no effect”.

The variants in another assay derive from B3. Conditions: with lztr1_human LZTR1, Q8N653. The source holds these as a separate data set.
Turning to F133V, the “effect of a mutation on the interaction” value is “with no effect”.

A further assay covers variants of B3. The following applies: with lztr1_human LZTR1, Q8N653. This is another data set of the same source.
F133L: the “effect of a mutation on the interaction” value is on record as “with no effect”.

The next assay covers variants of B3. Conditions: with lztr1_human LZTR1, Q8N653. The source holds these as a separate data set.
Regarding F102C, the “effect of a mutation on the interaction” value is reported as “with no effect”.

Variants of B4 are the subject of another assay. Conditions: with men1_human MEN1, O00255.
Consider Y87C, for which the “effect of a mutation on the interaction” value is given as “with no effect”.

A further assay covers variants of B4. The following applies: with men1_human MEN1, O00255. This is another data set of the same source.
As to F133L, the “effect of a mutation on the interaction” value was “with no effect”.

In a further assay the parent is B4. Conditions: with men1_human MEN1, O00255. This is another data set of the same source.
As for F133V, the “effect of a mutation on the interaction” value is “with no effect”.

Variants of B4 are the subject of a further assay. The following applies: with men1_human MEN1, O00255. The source holds these as a separate data set.
As to F102C, the “effect of a mutation on the interaction” value is “with no effect”.

Variants of B5 are the subject of another assay. The following applies: with lats2_human LATS2, Q9NRM7.
Turning to F102C, the “effect of a mutation on the interaction” value was “with no effect”.

Variants of B5 are the subject of the next assay. The following applies: with lats2_human LATS2, Q9NRM7. The source holds these as a separate data set.
Regarding F133L, the “effect of a mutation on the interaction” value was “with no effect”.

Variants of B5 are the subject of the next assay. Conditions: with lats2_human LATS2, Q9NRM7. This is another data set of the same source.
As to F133V, the “effect of a mutation on the interaction” value is listed as “with no effect”.

The variants in a further assay derive from B5. The following applies: with lats2_human LATS2, Q9NRM7. This is another data set of the same source.
As for Y87C, the “effect of a mutation on the interaction” value is on record as “with no effect”.

The next assay covers variants of B6. The following applies: with sdhb_human SDHB.
Regarding F102C, the “effect of a mutation on the interaction” value was “with no effect”.

In another assay the parent is B6. Conditions: with sdhb_human SDHB. This is another data set of the same source.
On to F133V, for which the “effect of a mutation on the interaction” value is “with no effect”.

The variants in a further assay derive from B6. The following applies: with sdhb_human SDHB. The source holds these as a separate data set.
Consider F133L, for which the “effect of a mutation on the interaction” value was “with no effect”.

In another assay the parent is B6. The following applies: with sdhb_human SDHB. This is another data set of the same source.
Y87C: the “effect of a mutation on the interaction” value is given as “with no effect”.
